Target: GST-SBP-SLBP (stem-loop binding protein) (Homo sapiens, UniProt Q14493 1-270)
Assay: targeted RNA Bind-n-Seq; RBNS binding buffer: 25 mM Tris pH 7.5, 150 mM KCl, 3 mM MgCl2, 0.1% Tween, 0.5 mg/mL BSA, 1 mM DTT; 27 nM protein, 750 pM RNA pool; temperature not stated; high values mean tight binding
Settings: protein: recombinant; tags: N-terminal GST and SBP (pGEX6P1-SBP)
Summary of the method: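 Read counts per sequence supply the binding signal, defined as the DEseq fold change on a binary-logarithm scale. These counts came from RNA of a designed, T7-transcribed oligo pool at 750 pM that bound 27 nM of GST-SBP-tagged protein, made in Rosetta(DE3) pLysS E. coli and glutathione-purified, in RBNS binding buffer. The bound RNA was reverse transcribed with a 10-nucleotide barcoded primer, PCR-amplified and sequenced on a MiSeq with 200-cycle paired-end reads, then processed with FLASH and HISAT2 and collapsed by barcode.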

Row | Binder | binding signal [log2 fold change]
1 | consensus (structured_RNA) RNA: GGUCACGUCUCAAUCAACUCCCAAAGGCCUUUCUAAAGGCCACCCAUCAACAGCUCGCAGUCAAG | 3.74 ± 0.124
2 | consensus (structured_RNA) RNA: GGUCACGUCUCAAUCAACUCCCAAAGGCCCUUUUUAGGGCCACCCAUCAACAGCUCGCAGUCAAG | 3.48 ± 0.162
3 | consensus (structured_RNA) RNA: GGUCACGUCUCAAUCAACUCCCAAAGGUCCUUCUAAGGACCACCCAUCAACAGCUCGCAGUCAAG | 3.48 ± 0.135
4 | consensus (structured_RNA) RNA: GGUCACGUCUCAAUCAACUCCCAAAGGCUUUUUUAAAAGCCACCCAUCAACAGCUCGCAGUCAAG | 3.48 ± 0.133
5 | consensus (structured_RNA) RNA: GGUCACGUCUCAAUCAACUCCCAAAGGCCCUUCUUAGGGCCACCCAUCAACAGCUCGCAGUCAAG | 3.46 ± 0.16
6 | consensus (structured_RNA) RNA: GGUCACGUCUCAAUCAACUCCCAAAGGUCCUUCUCAGGACCACCCAUCAACAGCUCGCAGUCAAG | 3.44 ± 0.13
7 | consensus (structured_RNA) RNA: GGUCACGUCUCAAUCAACUCCCAAAGGUUCUUUUCAGAACCACCCAUCAACAGCUCGCAGUCAAG | 3.44 ± 0.114
8 | consensus (structured_RNA) RNA: GGUCACGUCUCAAUCAACUCCCAAAGGUCCUUUUUAGGACCACCCAUCAACAGCUCGCAGUCAAG | 3.37 ± 0.117
9 | consensus (structured_RNA) RNA: GGUCACGUCUCAAUCAACUCCCAAAGGCCCUUUUGAGGGCCACCCAUCAACAGCUCGCAGUCAAG | 3.37 ± 0.174
10 | consensus (structured_RNA) RNA: GGUCACGUCUCAAUCAACUCCCAAAGGCCUUUUUGAAGGCCACCCAUCAACAGCUCGCAGUCAAG | 3.34 ± 0.155
11 | consensus (structured_RNA) RNA: GGUCACGUCUCAAUCAACUCCCAAAGGUCCUUUUCAGGGCCACCCAUCAACAGCUCGCAGUCAAG | 3.33 ± 0.12
12 | consensus (structured_RNA) RNA: GGUCACGUCUCAAUCAACUCCCAAAGGCUCUUUUCAGAGCCACCCAUCAACAGCUCGCAGUCAAG | 3.73 ± 0.129
13 | consensus (structured_RNA) RNA: GGUCACGUCUCAAUCAACUCCCAAAGGCCUUUCUGAAGGCCACCCAUCAACAGCUCGCAGUCAAG | 3.32 ± 0.133
14 | consensus (structured_RNA) RNA: GGUCACGUCUCAAUCAACUCCCAAAGGCUUUUCUAAAAGCCACCCAUCAACAGCUCGCAGUCAAG | 3.29 ± 0.116
15 | consensus (structured_RNA) RNA: GGUCACGUCUCAAUCAACUCCCAAAGGUCCUUCUAAGGGCCACCCAUCAACAGCUCGCAGUCAAG | 3.27 ± 0.13
16 | consensus (structured_RNA) RNA: GGUCACGUCUCAAUCAACUCCCAAAGGUCCUUUUAAGGGCCACCCAUCAACAGCUCGCAGUCAAG | 3.26 ± 0.128
17 | consensus (structured_RNA) RNA: GGUCACGUCUCAAUCAACUCCCAAAGGUCUUUUUCAAGGCCACCCAUCAACAGCUCGCAGUCAAG | 3.26 ± 0.121
18 | consensus (structured_RNA) RNA: GGUCACGUCUCAAUCAACUCCCAAAGGCUUUUCUCAAAGCCACCCAUCAACAGCUCGCAGUCAAG | 3.24 ± 0.124
19 | consensus (structured_RNA) RNA: GGUCACGUCUCAAUCAACUCCCAAAGGCUCUUCUCAGAGCCACCCAUCAACAGCUCGCAGUCAAG | 3.23 ± 0.14
20 | consensus (structured_RNA) RNA: GGUCACGUCUCAAUCAACUCCCAAAGGCUCUUCUAAGAGCCACCCAUCAACAGCUCGCAGUCAAG | 3.2 ± 0.135
21 | consensus (structured_RNA) RNA: GGUCACGUCUCAAUCAACUCCCAAAGGUCUUUUUUAAGACCACCCAUCAACAGCUCGCAGUCAAG | 3.2 ± 0.118
22 | consensus (structured_RNA) RNA: GGUCACGUCUCAAUCAACUCCCAAAGGUUCUUUUAAGAACCACCCAUCAACAGCUCGCAGUCAAG | 3.2 ± 0.125

Row | Binder | binding signal [log2 fold change]
23 | consensus (structured_RNA) RNA: GGUCACGUCUCAAUCAACUCCCAAAGGUCUUUCUAAAGACCACCCAUCAACAGCUCGCAGUCAAG | 3.73 ± 0.129
24 | consensus (structured_RNA) RNA: GGUCACGUCUCAAUCAACUCCCAAAGGUCUUUCUAAAGGCCACCCAUCAACAGCUCGCAGUCAAG | 3.19 ± 0.133
25 | consensus (structured_RNA) RNA: GGUCACGUCUCAAUCAACUCCCAAAGGCUCUUCUAAGGGCCACCCAUCAACAGCUCGCAGUCAAG | 3.19 ± 0.123
26 | consensus (structured_RNA) RNA: GGUCACGUCUCAAUCAACUCCCAAAGGUCUUUUUAAAGGCCACCCAUCAACAGCUCGCAGUCAAG | 3.18 ± 0.125
27 | consensus (structured_RNA) RNA: GGUCACGUCUCAAUCAACUCCCAAAGGCUUUUUUCAAGGCCACCCAUCAACAGCUCGCAGUCAAG | 3.17 ± 0.125
28 | consensus (structured_RNA) RNA: GGUCACGUCUCAAUCAACUCCCAAAGGCUCUUUUUAGAGCCACCCAUCAACAGCUCGCAGUCAAG | 3.17 ± 0.142
29 | consensus (structured_RNA) RNA: GGUCACGUCUCAAUCAACUCCCAAAGGCUUUUUUAAAGGCCACCCAUCAACAGCUCGCAGUCAAG | 3.16 ± 0.137
30 | consensus (structured_RNA) RNA: GGUCACGUCUCAAUCAACUCCCAAAGGUCCUUCUCAGGGCCACCCAUCAACAGCUCGCAGUCAAG | 3.16 ± 0.131
31 | consensus (structured_RNA) RNA: GGUCACGUCUCAAUCAACUCCCAAAGGCCCUUCUGAGGGCCACCCAUCAACAGCUCGCAGUCAAG | 3.16 ± 0.18
32 | consensus (structured_RNA) RNA: GGUCACGUCUCAAUCAACUCCCAAAGGUCUUUCUUAAGACCACCCAUCAACAGCUCGCAGUCAAG | 3.14 ± 0.132
33 | consensus (structured_RNA) RNA: GGUCACGUCUCAAUCAACUCCCAAAGGUCCUUCUUAGGACCACCCAUCAACAGCUCGCAGUCAAG | 3.13 ± 0.132
34 | consensus (structured_RNA) RNA: GGUCACGUCUCAAUCAACUCCCAAAGGCCUUUUUCAAGGCCACCCAUCAACAGCUCGCAGUCAAG | 3.7 ± 0.124
35 | consensus (structured_RNA) RNA: GGUCACGUCUCAAUCAACUCCCAAAGGCUCUUCUUAGAGCCACCCAUCAACAGCUCGCAGUCAAG | 3.11 ± 0.136
36 | consensus (structured_RNA) RNA: GGUCACGUCUCAAUCAACUCCCAAAGGCUCUUUUAAGGGCCACCCAUCAACAGCUCGCAGUCAAG | 3.07 ± 0.12
37 | consensus (structured_RNA) RNA: GGUCACGUCUCAAUCAACUCCCAAAGGUCCUUUUGAGGACCACCCAUCAACAGCUCGCAGUCAAG | 3.06 ± 0.144
38 | consensus (structured_RNA) RNA: GGUCACGUCUCAAUCAACUCCCAAAGGUUUUUCUAAAAACCACCCAUCAACAGCUCGCAGUCAAG | 3.04 ± 0.144
39 | consensus (structured_RNA) RNA: GGUCACGUCUCAAUCAACUCCCAAAGGUUUUUUUCAAAACCACCCAUCAACAGCUCGCAGUCAAG | 3.04 ± 0.195
40 | consensus (structured_RNA) RNA: GGUCACGUCUCAAUCAACUCCCAAAGGUUCUUCUAAGAACCACCCAUCAACAGCUCGCAGUCAAG | 3.04 ± 0.122
41 | consensus (structured_RNA) RNA: GGUCACGUCUCAAUCAACUCCCAAAGGCUCUUCUCAGGGCCACCCAUCAACAGCUCGCAGUCAAG | 3.04 ± 0.124
42 | consensus (structured_RNA) RNA: GGUCACGUCUCAAUCAACUCCCAAAGGUUCUUCUCAGAACCACCCAUCAACAGCUCGCAGUCAAG | 3.02 ± 0.121
43 | consensus (structured_RNA) RNA: GGUCACGUCUCAAUCAACUCCCAAAGGCUUUUCUUAAAGCCACCCAUCAACAGCUCGCAGUCAAG | 3 ± 0.122
44 | consensus (structured_RNA) RNA: GGUCACGUCUCAAUCAACUCCCAAAGGUUCUUUUCAGGACCACCCAUCAACAGCUCGCAGUCAAG | 3 ± 0.116
